Measured values from publication PMC3250429, “Recombinant Probiotic Expressing Listeria Adhesion Protein Attenuates Listeria monocytogenes Virulence In Vitro” (PLoS ONE, 2012).

Biological target: human Hsp60 (human, UniProt P10809 27-573, biotin (biotinylated Hsp60, site not stated))
Assay: cell-based or functional assay

Sequence of human Hsp60 (P10809 27-573): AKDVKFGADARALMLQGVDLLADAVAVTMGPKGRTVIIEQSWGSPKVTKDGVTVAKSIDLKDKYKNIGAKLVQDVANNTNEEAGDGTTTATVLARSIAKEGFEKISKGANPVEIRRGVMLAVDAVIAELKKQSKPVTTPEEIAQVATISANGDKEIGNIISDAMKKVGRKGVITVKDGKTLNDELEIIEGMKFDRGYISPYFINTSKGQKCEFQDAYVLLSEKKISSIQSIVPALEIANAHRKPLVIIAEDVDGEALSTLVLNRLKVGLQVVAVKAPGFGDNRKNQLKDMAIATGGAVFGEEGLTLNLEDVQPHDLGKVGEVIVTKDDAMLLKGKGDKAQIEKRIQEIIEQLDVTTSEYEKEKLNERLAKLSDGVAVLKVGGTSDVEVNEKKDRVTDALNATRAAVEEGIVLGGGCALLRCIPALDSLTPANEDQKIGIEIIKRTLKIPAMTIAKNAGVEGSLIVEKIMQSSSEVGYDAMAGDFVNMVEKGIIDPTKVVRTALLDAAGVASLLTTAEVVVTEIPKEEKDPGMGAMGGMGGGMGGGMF

B1: Listeria adhesion protein (LAP) of L. monocytogenes expressed on recombinant Lactobacillus paracasei (Lbp^LAP) (natural protein)
chain: MAIKENAAQEVLEVQKVIDRLADNGQKALKAFESYNQEQVDNIVHAMALAGLDQHMPLAKLAVEETGRGLYEDKCIKNIFATEYIWNNIKNNKTVGVINEDLQTGVIEIAEPVGVVAGVTPVTNPTSTTLFKAIIAIKTRNPIIFAFHPSAQRCSSAAAKVVYDAAIAAGAPEHCIQWVEKPSLEATKQLMNHDKVALVLATGGAGMVKSAYSTGKPALGVGPGNVPAYIDKTAKIKRSVNDIILSKSFDQGMICASEQAVIVDKEVAKEVKAEMEANNCYFVKGAEFKKLESYVINPEKGTLNPDVVGKSPAWIANQAGFKVPEDTKILVAEIKGVGDKYPLSHEKLSPVLAFIEAANQAEAFDRCEEMLVYGGLGHSAVIHSTDKEVQKAFGIRMKACRIIVNAPSAQGGIGDIYNGFIPSLTLGCGSYGKNSVSQNVSATNLLNVKRIADRRNNMQWFKLPPKIFFEKYSTQYLQKMEGVERVFIVTDPGMVQFKYVDVVIEHLKKRGNDVSYQVFADVEPDPSDVTVYKGAELMKDFKPDTIIALGGGSAMDAAKGMWLFYEHPEASFFGLKQKFLDIRKRTFKYPKLGGKAKFVAIPTTSGTGSEVTPFAVITDKENNIKYPLADYELTPDVAIVDAQYVTTVPAHITADTGMDVLTHAIESYVSVMASDYTRGLSIRAIELVFENLRESVLTGDPDAREKMHNASALAGMAFANAFLGINHSLAHKIGPEFHIPHGRANAILMPHVIRYNALKPKKHALFPRYESFRADEDYARISRIIGFPAATTEEGVKSLVDEIIKLGKDVGIDMSLKGQNVAKKDLDAVVDTLADRAFMDQCTTANPKQPLVSELKEIYLEAYKGV
Q: Which “transepithelial translocation of Lbp^LAP cells through Caco-2 monolayers (transwell, 2 h), against Lbp^WT” value does the source give for B1 here?
A: 5.1 fold
